B1: Tryptophan synthase alpha chain, P0A877 (parent)
chain: MERYESLFAQLKERKEGAFVPFVTLGDPGIEQSLKIIDTLIEAGADALELGIPFSDPLADGPTIQNATLRAFAAGVTPAQCFEMLALIRQKHPTIPIGLLMYANLVFNKGIDEFYAQCEKVGVDSVLVADVPVEESAPFRQAALRHNVAPIFICPPNADDDLLRQIASYGRGYTYLLSRAGVTGAENRAALPLNHLVAKLKEYNAAPPLQGFGISAPDQVKAAIDAGAAGAISGSAIVKIIEQHINEPEKMLAALKVFVQPMKAATRS

Variants of: B1
Details: Escherichia coli (strain K12); pH 7.2; Thermal; DSC; Sodium phosphate 1 mM; reversible: yes; structure 1WQ5; whole UniProt chain shown

| Variant | Tm [°C] | change of melting temperature, mutant - wild type (higher = more stable) [°C] |
| --- | --- | --- |
| F114L | 56.2 | -3.3 |
| Y102H | 60.3 | 0.8 |
| D112G | 54.4 | -5.1 |
| D112N | 56.4 | -3.1 |
| Y115C | 57.2 | -2.3 |

From FireProtDB (doi:10.1016/0003-9861(92)90047-z)
